Substrate in series [1]: OC[C@H]1O[C@@H](O[C@H]2[C@H](O)[C@@H](CO)OC(O)[C@@H]2O)[C@H](O)[C@@H](O)[C@@H]1O
The series is described as follows: Steady-state apparent kinetic constants with substrates. It is filed as biochemical, Hordeum vulgare. Conditions: substance is the substrate, pH 5.25, 30.0 °C.

Substrate in series [2]: O=[N+]([O-])c1ccc(O[C@@H]2O[C@H](CO)[C@@H](O)[C@H](O)[C@H]2O)cc1
The description is as above. The format is biochemical, Hordeum vulgare. Conditions: substance is the substrate, pH 5.25, 30.0 °C.

From PMC9508125, “The evolutionary advantage of an aromatic clamp in plant family 3 glycoside exo-hydrolases” (Nature Communications, 2022) come the findings set out here.

For orientation: Km means the concentration of substrate that gives half-maximal velocity. For orientation: kcat means the maximal rate divided by the concentration of active sites. A word on the kcat/Km: it is the second-order rate constant that governs catalysis at low substrate concentration.

B1: HvExoI W286F mutant (Hordeum vulgare subsp. vulgare; W311F) (protein)
chain: DYVLYKDATKPVEDRVADLLGRMTLAEKIGQMTQIERLVATPDVLRDNFIGSLLSGGGSVPRKGATAKEWQDMVDGFQKACMSTRLGIPMIYGIDAVHGQNNVYGATIFPHNVGLGATRDPYLVKRIGEATALEVRATGIQYAFAPCIAVCRDPRWGRCYESYSEDRRIVQSMTELIPGLQGDVPKDFTSGMPFVAGKNKVAACAKHFVGDGGTVDGINENNTIINREGLMNIHMPAYKNAMDKGVSTVMISYSSWNGVKMHANQDLVTGYLKDTLKFKGFVISDFEGIDRITTPAGSDYSYSVKASILAGLDMIMVPNNYQQFISILTGHVNGGVIPMSRIDDAVTRILRVKFTMGLFENPYADPAMAEQLGKQEHRDLAREAARKSLVLLKNGKTSTDAPLLPLPKKAPKILVAGSHADNLGYQCGGWTIEWQGDTGRTTVGTTILEAVKAAVDPSTVVVFAENPDAEFVKSGGFSYAIVAVGEHPYTETKGDNLNLTIPEPGLSTVQAVCGGVRCATVLISGRPVVVQPLLAASDALVAAWLPGSEGQGVTDALFGDFGFTGRLPRTWFKSVDQLPMNVGDAHYDPLFRLGYGLTTNATKKY
Turning to B1, in series [1] (other: W286F), the Km worked out at 400 ± 40 µM, the kcat amounted to 2.6 ± 0.2 s⁻¹ and the kcat/Km was 5800 ± 400 M⁻¹ s⁻¹. In series [2] (other: W286F), the Km is 2400 ± 300 µM, the turnover number (kcat) worked out at 1.9 ± 0.1 s⁻¹ and the kcat/Km turned out to be 800 ± 10 M⁻¹ s⁻¹.

B2: HvExoI W434H mutant (Hordeum vulgare subsp. vulgare; W459H) (protein)
chain: DYVLYKDATKPVEDRVADLLGRMTLAEKIGQMTQIERLVATPDVLRDNFIGSLLSGGGSVPRKGATAKEWQDMVDGFQKACMSTRLGIPMIYGIDAVHGQNNVYGATIFPHNVGLGATRDPYLVKRIGEATALEVRATGIQYAFAPCIAVCRDPRWGRCYESYSEDRRIVQSMTELIPGLQGDVPKDFTSGMPFVAGKNKVAACAKHFVGDGGTVDGINENNTIINREGLMNIHMPAYKNAMDKGVSTVMISYSSWNGVKMHANQDLVTGYLKDTLKFKGFVISDWEGIDRITTPAGSDYSYSVKASILAGLDMIMVPNNYQQFISILTGHVNGGVIPMSRIDDAVTRILRVKFTMGLFENPYADPAMAEQLGKQEHRDLAREAARKSLVLLKNGKTSTDAPLLPLPKKAPKILVAGSHADNLGYQCGGWTIEHQGDTGRTTVGTTILEAVKAAVDPSTVVVFAENPDAEFVKSGGFSYAIVAVGEHPYTETKGDNLNLTIPEPGLSTVQAVCGGVRCATVLISGRPVVVQPLLAASDALVAAWLPGSEGQGVTDALFGDFGFTGRLPRTWFKSVDQLPMNVGDAHYDPLFRLGYGLTTNATKKY
As to B2, in series [1] (other: W434H), the Km was 1700 ± 400 µM, the kcat turned out to be 51.8 ± 2.0 s⁻¹ and the kcat/Km worked out at 31300 ± 7300 M⁻¹ s⁻¹. Moreover, in series [2] (other: W434H), the Michaelis constant (Km) turned out to be 2200 ± 200 µM, the kcat was 7.7 ± 0.6 s⁻¹ and the kcat/Km amounted to 3500 ± 400 M⁻¹ s⁻¹.

B3: HvExoI W286Y mutant (Hordeum vulgare subsp. vulgare; W311Y) (protein)
chain: DYVLYKDATKPVEDRVADLLGRMTLAEKIGQMTQIERLVATPDVLRDNFIGSLLSGGGSVPRKGATAKEWQDMVDGFQKACMSTRLGIPMIYGIDAVHGQNNVYGATIFPHNVGLGATRDPYLVKRIGEATALEVRATGIQYAFAPCIAVCRDPRWGRCYESYSEDRRIVQSMTELIPGLQGDVPKDFTSGMPFVAGKNKVAACAKHFVGDGGTVDGINENNTIINREGLMNIHMPAYKNAMDKGVSTVMISYSSWNGVKMHANQDLVTGYLKDTLKFKGFVISDYEGIDRITTPAGSDYSYSVKASILAGLDMIMVPNNYQQFISILTGHVNGGVIPMSRIDDAVTRILRVKFTMGLFENPYADPAMAEQLGKQEHRDLAREAARKSLVLLKNGKTSTDAPLLPLPKKAPKILVAGSHADNLGYQCGGWTIEWQGDTGRTTVGTTILEAVKAAVDPSTVVVFAENPDAEFVKSGGFSYAIVAVGEHPYTETKGDNLNLTIPEPGLSTVQAVCGGVRCATVLISGRPVVVQPLLAASDALVAAWLPGSEGQGVTDALFGDFGFTGRLPRTWFKSVDQLPMNVGDAHYDPLFRLGYGLTTNATKKY
For B3, in series [1] (other: W286Y), the Michaelis-Menten constant (Km) came to 400 ± 40 µM, the kcat turned out to be 20.7 ± 1.7 s⁻¹ and the specificity constant (kcat/Km) worked out at 52600 ± 1500 M⁻¹ s⁻¹. Besides, in series [2] (other: W286Y), the Km amounted to 2000 ± 100 µM, the kcat was found to be 28.8 ± 2.9 s⁻¹ and the catalytic efficiency (kcat/Km) came out at 14600 ± 1500 M⁻¹ s⁻¹.

B4: WT HvExoI (Hordeum vulgare subsp. vulgare) (protein)
chain: DYVLYKDATKPVEDRVADLLGRMTLAEKIGQMTQIERLVATPDVLRDNFIGSLLSGGGSVPRKGATAKEWQDMVDGFQKACMSTRLGIPMIYGIDAVHGQNNVYGATIFPHNVGLGATRDPYLVKRIGEATALEVRATGIQYAFAPCIAVCRDPRWGRCYESYSEDRRIVQSMTELIPGLQGDVPKDFTSGMPFVAGKNKVAACAKHFVGDGGTVDGINENNTIINREGLMNIHMPAYKNAMDKGVSTVMISYSSWNGVKMHANQDLVTGYLKDTLKFKGFVISDWEGIDRITTPAGSDYSYSVKASILAGLDMIMVPNNYQQFISILTGHVNGGVIPMSRIDDAVTRILRVKFTMGLFENPYADPAMAEQLGKQEHRDLAREAARKSLVLLKNGKTSTDAPLLPLPKKAPKILVAGSHADNLGYQCGGWTIEWQGDTGRTTVGTTILEAVKAAVDPSTVVVFAENPDAEFVKSGGFSYAIVAVGEHPYTETKGDNLNLTIPEPGLSTVQAVCGGVRCATVLISGRPVVVQPLLAASDALVAAWLPGSEGQGVTDALFGDFGFTGRLPRTWFKSVDQLPMNVGDAHYDPLFRLGYGLTTNATKKY
For B4, in series [2] (other: WT), the Michaelis constant (Km) turned out to be 2000 ± 150 µM, the turnover number (kcat) came out at 27.7 ± 2.5 s⁻¹ and the kcat/Km was 13900 ± 600 M⁻¹ s⁻¹.

B5: HvExoI W434A mutant (Hordeum vulgare subsp. vulgare; W459A) (protein)
chain: DYVLYKDATKPVEDRVADLLGRMTLAEKIGQMTQIERLVATPDVLRDNFIGSLLSGGGSVPRKGATAKEWQDMVDGFQKACMSTRLGIPMIYGIDAVHGQNNVYGATIFPHNVGLGATRDPYLVKRIGEATALEVRATGIQYAFAPCIAVCRDPRWGRCYESYSEDRRIVQSMTELIPGLQGDVPKDFTSGMPFVAGKNKVAACAKHFVGDGGTVDGINENNTIINREGLMNIHMPAYKNAMDKGVSTVMISYSSWNGVKMHANQDLVTGYLKDTLKFKGFVISDWEGIDRITTPAGSDYSYSVKASILAGLDMIMVPNNYQQFISILTGHVNGGVIPMSRIDDAVTRILRVKFTMGLFENPYADPAMAEQLGKQEHRDLAREAARKSLVLLKNGKTSTDAPLLPLPKKAPKILVAGSHADNLGYQCGGWTIEAQGDTGRTTVGTTILEAVKAAVDPSTVVVFAENPDAEFVKSGGFSYAIVAVGEHPYTETKGDNLNLTIPEPGLSTVQAVCGGVRCATVLISGRPVVVQPLLAASDALVAAWLPGSEGQGVTDALFGDFGFTGRLPRTWFKSVDQLPMNVGDAHYDPLFRLGYGLTTNATKKY
On to B5, for which, in series [1] (other: W434A), the Michaelis constant (Km) came to 2100 ± 200 µM, the kcat is 2.6 ± 0.2 s⁻¹ and the kcat/Km is 1300 ± 100 M⁻¹ s⁻¹. In addition, in series [2] (other: W434A), the Km amounted to 500 ± 100 µM, the catalytic constant (kcat) came out at 9.5 ± 0.7 s⁻¹ and the kcat/Km turned out to be 17600 ± 1800 M⁻¹ s⁻¹.

B6: HvExoI W434F mutant (Hordeum vulgare subsp. vulgare; W459F) (protein)
chain: DYVLYKDATKPVEDRVADLLGRMTLAEKIGQMTQIERLVATPDVLRDNFIGSLLSGGGSVPRKGATAKEWQDMVDGFQKACMSTRLGIPMIYGIDAVHGQNNVYGATIFPHNVGLGATRDPYLVKRIGEATALEVRATGIQYAFAPCIAVCRDPRWGRCYESYSEDRRIVQSMTELIPGLQGDVPKDFTSGMPFVAGKNKVAACAKHFVGDGGTVDGINENNTIINREGLMNIHMPAYKNAMDKGVSTVMISYSSWNGVKMHANQDLVTGYLKDTLKFKGFVISDWEGIDRITTPAGSDYSYSVKASILAGLDMIMVPNNYQQFISILTGHVNGGVIPMSRIDDAVTRILRVKFTMGLFENPYADPAMAEQLGKQEHRDLAREAARKSLVLLKNGKTSTDAPLLPLPKKAPKILVAGSHADNLGYQCGGWTIEFQGDTGRTTVGTTILEAVKAAVDPSTVVVFAENPDAEFVKSGGFSYAIVAVGEHPYTETKGDNLNLTIPEPGLSTVQAVCGGVRCATVLISGRPVVVQPLLAASDALVAAWLPGSEGQGVTDALFGDFGFTGRLPRTWFKSVDQLPMNVGDAHYDPLFRLGYGLTTNATKKY
Regarding B6, in series [1] (other: W434F), the Km came to 1700 ± 200 µM, the kcat is 17.1 ± 1.6 s⁻¹ and the catalytic efficiency (kcat/Km) worked out at 9900 ± 1200 M⁻¹ s⁻¹. In addition, in series [2] (other: W434F), the Km came to 600 ± 40 µM, the kcat is 6.6 ± 0.7 s⁻¹ and the specificity constant (kcat/Km) came out at 12700 ± 2100 M⁻¹ s⁻¹.

B7: HvExoI W434Y mutant (Hordeum vulgare subsp. vulgare; W459Y) (protein)
chain: DYVLYKDATKPVEDRVADLLGRMTLAEKIGQMTQIERLVATPDVLRDNFIGSLLSGGGSVPRKGATAKEWQDMVDGFQKACMSTRLGIPMIYGIDAVHGQNNVYGATIFPHNVGLGATRDPYLVKRIGEATALEVRATGIQYAFAPCIAVCRDPRWGRCYESYSEDRRIVQSMTELIPGLQGDVPKDFTSGMPFVAGKNKVAACAKHFVGDGGTVDGINENNTIINREGLMNIHMPAYKNAMDKGVSTVMISYSSWNGVKMHANQDLVTGYLKDTLKFKGFVISDWEGIDRITTPAGSDYSYSVKASILAGLDMIMVPNNYQQFISILTGHVNGGVIPMSRIDDAVTRILRVKFTMGLFENPYADPAMAEQLGKQEHRDLAREAARKSLVLLKNGKTSTDAPLLPLPKKAPKILVAGSHADNLGYQCGGWTIEYQGDTGRTTVGTTILEAVKAAVDPSTVVVFAENPDAEFVKSGGFSYAIVAVGEHPYTETKGDNLNLTIPEPGLSTVQAVCGGVRCATVLISGRPVVVQPLLAASDALVAAWLPGSEGQGVTDALFGDFGFTGRLPRTWFKSVDQLPMNVGDAHYDPLFRLGYGLTTNATKKY
Turning to B7, in series [1] (other: W434Y), the Michaelis-Menten constant (Km) stood at 600 ± 100 µM, the kcat was determined as 2.0 ± 0.1 s⁻¹ and the specificity constant (kcat/Km) was 3300 ± 300 M⁻¹ s⁻¹. Moreover, in series [2] (other: W434Y), the Michaelis-Menten constant (Km) was 300 ± 30 µM, the kcat is 1.2 ± 0.1 s⁻¹ and the catalytic efficiency (kcat/Km) amounted to 3500 ± 400 M⁻¹ s⁻¹.
